B1: NRC3_random_hg19_91_o1 (dsDNA)
DNA 1: GCGACTCAGACACTGCTGGCACCCGACACTGCTCTCGCGATTGACAGCGTAGAATGAAGG
DNA 2: CCTTCATTCTACGCTGTCAATCGCGAGAGCAGTGTCGGGTGCCAGCAGTGTCTGAGTCGC
B2: NRC3_random_hg19_119_o1 (dsDNA)
DNA 1: GCCCTACCCTCCTCCCTGTCACTCGCCAGTCCCAGCGCGATTGACAGCGTAGAATGAAGG
DNA 2: CCTTCATTCTACGCTGTCAATCGCGCTGGGACTGGCGAGTGACAGGGAGGAGGGTAGGGC
B3: NRC3_wobSeed72_DR2_G20T_o1 (dsDNA)
DNA 1: GCTCGAGTAGGTTACGGGGTCATTCAGGGATGAAGAGCGATTGACAGCGTAGAATGAAGG
DNA 2: CCTTCATTCTACGCTGTCAATCGCTCTTCATCCCTGAATGACCCCGTAACCTACTCGAGC
B4: NRC3_random_hg19_379_o1 (dsDNA)
DNA 1: GCAGGCTGGCAGATGGTTCAACAGGTGAGTAAAGCAGCGATTGACAGCGTAGAATGAAGG
DNA 2: CCTTCATTCTACGCTGTCAATCGCTGCTTTACTCACCTGTTGAACCATCTGCCAGCCTGC
B5: NRC3_wobSeed111_DR4_T8G_o1 (dsDNA)
DNA 1: GCCGAACGAGGTCAGAACAGGACAGTGAAGGATGATGCGATTGACAGCGTAGAATGAAGG
DNA 2: CCTTCATTCTACGCTGTCAATCGCATCATCCTTCACTGTCCTGTTCTGACCTCGTTCGGC
B6: NRC3_random_hg19_156_o1 (dsDNA)
DNA 1: GCGCCACCAGGCCTGCCTTACAAGAGCTCCTGAAGAGCGATTGACAGCGTAGAATGAAGG
DNA 2: CCTTCATTCTACGCTGTCAATCGCTCTTCAGGAGCTCTTGTAAGGCAGGCCTGGTGGCGC
B7: NRC3_random_hg19_360_o1 (dsDNA)
DNA 1: GCGCCTGCATAGCCATTCACAGACACTGCCAATACCGCGATTGACAGCGTAGAATGAAGG
DNA 2: CCTTCATTCTACGCTGTCAATCGCGGTATTGGCAGTGTCTGTGAATGGCTATGCAGGCGC
B8: NRC3_random_hg19_402_o1 (dsDNA)
DNA 1: GCTGAGGTGCTTCAGAGATGTCCACTCCTGCTGGCTGCGATTGACAGCGTAGAATGAAGG
DNA 2: CCTTCATTCTACGCTGTCAATCGCAGCCAGCAGGAGTGGACATCTCTGAAGCACCTCAGC
B9: NRC3_random_hg19_227_o1 (dsDNA)
DNA 1: GCGAAGGAAGGAAGGAAGGAAGGAAGGAAGGAAGGCGCGATTGACAGCGTAGAATGAAGG
DNA 2: CCTTCATTCTACGCTGTCAATCGCGCCTTCCTTCCTTCCTTCCTTCCTTCCTTCCTTCGC
B10: NRC3_random_hg19_233_o1 (dsDNA)
DNA 1: GCTACAAAGTACTGGGATCCTCCCAACAGCCTGCAAGCGATTGACAGCGTAGAATGAAGG
DNA 2: CCTTCATTCTACGCTGTCAATCGCTTGCAGGCTGTTGGGAGGATCCCAGTACTTTGTAGC
B11: NRC3_random_hg19_257_o1 (dsDNA)
DNA 1: GCACACTGACAATAGCATACACCTTTCCAGAATGCGGCGATTGACAGCGTAGAATGAAGG
DNA 2: CCTTCATTCTACGCTGTCAATCGCCGCATTCTGGAAAGGTGTATGCTATTGTCAGTGTGC
B12: NRC3_wobSeed133_DR5_G26C_o1 (dsDNA)
DNA 1: GCCGTCCAAGGTCAATGCTAGGTCACTGAAAGCATTGCGATTGACAGCGTAGAATGAAGG
DNA 2: CCTTCATTCTACGCTGTCAATCGCAATGCTTTCAGTGACCTAGCATTGACCTTGGACGGC
B13: NRC3_wobSeed133_DR5_T19G_o1 (dsDNA)
DNA 1: GCCGTCCAAGGTCAATGCGAGGTCAGTGAAAGCATTGCGATTGACAGCGTAGAATGAAGG
DNA 2: CCTTCATTCTACGCTGTCAATCGCAATGCTTTCACTGACCTCGCATTGACCTTGGACGGC
B14: NRC3_wobSeed73_DR3_T8C_o1 (dsDNA)
DNA 1: GCCAAACCAGGTCACAGAGGTCAAAGTCCGTGCGTAGCGATTGACAGCGTAGAATGAAGG
DNA 2: CCTTCATTCTACGCTGTCAATCGCTACGCACGGACTTTGACCTCTGTGACCTGGTTTGGC
B15: NRC3_random_hg19_192_o1 (dsDNA)
DNA 1: GCGCAGGAAGCCCTCCTCCAGCTTACAGTGGAACTCGCGATTGACAGCGTAGAATGAAGG
DNA 2: CCTTCATTCTACGCTGTCAATCGCGAGTTCCACTGTAAGCTGGAGGAGGGCTTCCTGCGC
B16: NRC3_random_hg19_138_o1 (dsDNA)
DNA 1: GCTAGGTTCTCAGAGTAAGAAGTCCATGTTGGTTAGGCGATTGACAGCGTAGAATGAAGG
DNA 2: CCTTCATTCTACGCTGTCAATCGCCTAACCAACATGGACTTCTTACTCTGAGAACCTAGC
B17: NRC3_random_hg19_266_o1 (dsDNA)
DNA 1: GCAATGACAAGGAAGTGTGGAGGCAGAAAGTGCCAAGCGATTGACAGCGTAGAATGAAGG
DNA 2: CCTTCATTCTACGCTGTCAATCGCTTGGCACTTTCTGCCTCCACACTTCCTTGTCATTGC
B18: NRC3_wobSeed85_DR3_A16T_o1 (dsDNA)
DNA 1: GCCGTCCAAGGTCAGTGAGGTCAGTGAATGCCGAGTGCGATTGACAGCGTAGAATGAAGG
DNA 2: CCTTCATTCTACGCTGTCAATCGCACTCGGCATTCACTGACCTCACTGACCTTGGACGGC

How the values were obtained:
RARa:RXRa = RARa:RXRa (Homo sapiens, UniProt P10276;P19793 full;full); assay: no ligand; PBM; 270 nM : 90 nM RXRa; PBS pH 7.4, 2% milk, 0.02% Triton X-100, 1 mM DTT, BSA, 0.4 mg/ml salmon testes DNA; conditions: tags: His kept;His cleaved; copies: 1;1; label: surface-attached array probe
RARa:RXRa, sequence (P10276 whole entry, chain 1 of 2): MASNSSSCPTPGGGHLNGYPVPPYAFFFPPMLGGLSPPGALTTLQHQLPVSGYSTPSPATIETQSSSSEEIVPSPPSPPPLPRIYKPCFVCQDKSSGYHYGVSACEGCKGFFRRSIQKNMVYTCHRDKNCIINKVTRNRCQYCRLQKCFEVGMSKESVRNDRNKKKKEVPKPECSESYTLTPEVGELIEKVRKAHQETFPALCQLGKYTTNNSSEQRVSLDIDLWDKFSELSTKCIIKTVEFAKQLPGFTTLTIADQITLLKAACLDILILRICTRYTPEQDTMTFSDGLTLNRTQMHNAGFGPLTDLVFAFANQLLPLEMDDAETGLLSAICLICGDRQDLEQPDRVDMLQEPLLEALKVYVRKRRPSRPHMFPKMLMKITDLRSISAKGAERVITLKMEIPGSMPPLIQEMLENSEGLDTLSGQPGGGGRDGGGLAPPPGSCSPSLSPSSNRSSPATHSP
RARa:RXRa, sequence (P19793 whole entry, chain 2 of 2): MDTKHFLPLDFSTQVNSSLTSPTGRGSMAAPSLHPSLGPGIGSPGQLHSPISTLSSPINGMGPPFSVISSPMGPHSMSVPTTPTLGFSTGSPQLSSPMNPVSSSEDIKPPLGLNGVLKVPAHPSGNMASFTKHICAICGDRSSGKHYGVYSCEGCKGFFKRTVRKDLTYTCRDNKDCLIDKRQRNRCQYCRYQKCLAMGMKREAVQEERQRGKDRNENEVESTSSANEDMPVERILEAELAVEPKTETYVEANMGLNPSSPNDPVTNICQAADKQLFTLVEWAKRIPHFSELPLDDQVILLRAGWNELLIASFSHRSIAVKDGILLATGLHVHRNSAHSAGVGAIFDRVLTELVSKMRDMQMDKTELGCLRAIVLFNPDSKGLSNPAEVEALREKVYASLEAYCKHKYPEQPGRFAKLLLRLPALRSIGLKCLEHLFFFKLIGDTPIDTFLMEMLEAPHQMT
Procedure, shortened: (§1)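 Each nuclear receptor dimer, without ligand, was incubated for 1 h on custom Agilent 4×180K protein-binding microarrays. Binding was detected with antibodies against each partner (one per run), and scanned fluorescence was regression-normalized. The binding z-scores are referenced to random human genomic background probes.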

THRa:RXRa = THRa:RXRa (Homo sapiens, UniProt P10827;P19793 full;full); assay: no ligand; PBM; 90 nM : 90 nM RXRa; PBS pH 7.4, 2% milk, 0.02% Triton X-100, 1 mM DTT, BSA, 0.4 mg/ml salmon testes DNA; conditions: tags: His kept;His cleaved; copies: 1;1; label: surface-attached array probe
PPARg:RXRa = PPARg:RXRa (Homo sapiens, UniProt P37231;P19793 full;full); assay: no ligand; PBM; 180 nM : 90 nM RXRa; PBS pH 7.4, 2% milk, 0.02% Triton X-100, 1 mM DTT, BSA, 0.4 mg/ml salmon testes DNA; conditions: tags: His kept;His cleaved; copies: 1;1; label: surface-attached array probe
PPARg:RXRa, sequence (P37231 29-505, chain 1 of 2): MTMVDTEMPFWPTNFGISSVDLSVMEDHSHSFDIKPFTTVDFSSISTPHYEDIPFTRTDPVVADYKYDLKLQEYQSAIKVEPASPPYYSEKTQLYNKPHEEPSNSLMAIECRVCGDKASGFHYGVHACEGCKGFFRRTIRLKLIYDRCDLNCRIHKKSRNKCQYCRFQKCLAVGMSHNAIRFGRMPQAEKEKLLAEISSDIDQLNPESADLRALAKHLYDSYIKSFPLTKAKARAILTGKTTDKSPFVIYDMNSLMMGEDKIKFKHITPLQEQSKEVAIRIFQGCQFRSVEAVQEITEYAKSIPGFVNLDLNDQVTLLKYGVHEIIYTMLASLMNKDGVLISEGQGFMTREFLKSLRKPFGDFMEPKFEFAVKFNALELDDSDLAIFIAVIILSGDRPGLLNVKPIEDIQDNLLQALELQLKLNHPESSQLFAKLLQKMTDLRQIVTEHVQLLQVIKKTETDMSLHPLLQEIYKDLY
PPARg:RXRa, sequence (P19793 whole entry, chain 2 of 2): as the sequence (P19793 whole entry, chain 2 of 2) above
VDR:RXRa = VDR:RXRa (Homo sapiens, UniProt P11473;P19793 full;full); assay: no ligand; PBM; 270 nM : 90 nM RXRa; PBS pH 7.4, 2% milk, 0.02% Triton X-100, 1 mM DTT, BSA, 0.4 mg/ml salmon testes DNA; conditions: tags: His kept;His cleaved; copies: 1;1; label: surface-attached array probe
Procedure, shortened: as §1

PXR:RXRa = PXR:RXRa (Homo sapiens, UniProt O75469;P19793 full;full); assay: as above; conditions: tags: His kept;His cleaved; copies: 1;1; label: surface-attached array probe
PXR:RXRa, sequence (O75469 whole entry, chain 1 of 2): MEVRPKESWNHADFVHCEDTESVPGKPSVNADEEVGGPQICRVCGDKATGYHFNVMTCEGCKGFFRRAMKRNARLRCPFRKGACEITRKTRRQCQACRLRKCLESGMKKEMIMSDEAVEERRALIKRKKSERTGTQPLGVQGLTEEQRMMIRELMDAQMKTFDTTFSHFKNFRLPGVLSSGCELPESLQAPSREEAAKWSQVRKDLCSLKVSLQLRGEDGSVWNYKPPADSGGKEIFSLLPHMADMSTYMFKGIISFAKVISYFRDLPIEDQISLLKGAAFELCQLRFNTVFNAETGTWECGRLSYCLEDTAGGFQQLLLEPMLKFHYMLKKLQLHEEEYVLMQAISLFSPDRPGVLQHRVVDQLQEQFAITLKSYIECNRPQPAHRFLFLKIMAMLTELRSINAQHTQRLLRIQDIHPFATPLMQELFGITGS
PXR:RXRa, sequence (P19793 whole entry, chain 2 of 2): as the sequence (P19793 whole entry, chain 2 of 2) above
Procedure, shortened: as §1

LXRa:RXRa = LXRa:RXRa (Homo sapiens, UniProt Q13133;P19793 full;full); assay: as above; conditions: tags: His kept;His cleaved; copies: 1;1; label: surface-attached array probe
Procedure, shortened: as §1

PPARa:RXRa = PPARa:RXRa (Homo sapiens, UniProt Q07869;P19793 full;full); assay: as above; conditions: tags: GST kept;His cleaved; copies: 1;1; label: surface-attached array probe
Procedure, shortened: as §1

LXRb:RXRa = LXRb:RXRa (Homo sapiens, UniProt P55055;P19793 full;full); assay: as above; conditions: tags: His kept;His cleaved; copies: 1;1; label: surface-attached array probe
LXRb:RXRa, sequence (P55055 whole entry, chain 1 of 2): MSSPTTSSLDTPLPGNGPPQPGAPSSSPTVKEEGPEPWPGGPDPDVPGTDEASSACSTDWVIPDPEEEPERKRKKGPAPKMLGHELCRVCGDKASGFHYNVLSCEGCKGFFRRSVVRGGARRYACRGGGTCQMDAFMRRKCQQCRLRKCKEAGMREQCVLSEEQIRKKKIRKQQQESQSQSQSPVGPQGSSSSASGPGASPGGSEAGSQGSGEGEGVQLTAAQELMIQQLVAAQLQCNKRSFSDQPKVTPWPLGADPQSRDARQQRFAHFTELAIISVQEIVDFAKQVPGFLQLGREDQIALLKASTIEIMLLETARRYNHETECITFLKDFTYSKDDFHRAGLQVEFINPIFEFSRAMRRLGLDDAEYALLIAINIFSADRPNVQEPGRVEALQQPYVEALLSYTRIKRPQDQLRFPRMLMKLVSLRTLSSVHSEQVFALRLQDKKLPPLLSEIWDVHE
LXRb:RXRa, sequence (P19793 whole entry, chain 2 of 2): as the sequence (P19793 whole entry, chain 2 of 2) above
Procedure, shortened: as §1

RXRa = RXRa (Homo sapiens, UniProt P19793); assay: no ligand; PBM; 180 nM; PBS pH 7.4, 2% milk, 0.02% Triton X-100, 1 mM DTT, BSA, 0.4 mg/ml salmon testes DNA; conditions: tags: His cleaved; chain copies: 2; label: surface-attached array probe
FXR:RXRa = FXR:RXRa (Homo sapiens, UniProt Q96RI1;P19793 full;full); assay: no ligand; PBM; 270 nM : 90 nM RXRa; PBS pH 7.4, 2% milk, 0.02% Triton X-100, 1 mM DTT, BSA, 0.4 mg/ml salmon testes DNA; conditions: tags: His kept;His cleaved; copies: 1;1; label: surface-attached array probe
FXR:RXRa, sequence (Q96RI1 whole entry, chain 1 of 2): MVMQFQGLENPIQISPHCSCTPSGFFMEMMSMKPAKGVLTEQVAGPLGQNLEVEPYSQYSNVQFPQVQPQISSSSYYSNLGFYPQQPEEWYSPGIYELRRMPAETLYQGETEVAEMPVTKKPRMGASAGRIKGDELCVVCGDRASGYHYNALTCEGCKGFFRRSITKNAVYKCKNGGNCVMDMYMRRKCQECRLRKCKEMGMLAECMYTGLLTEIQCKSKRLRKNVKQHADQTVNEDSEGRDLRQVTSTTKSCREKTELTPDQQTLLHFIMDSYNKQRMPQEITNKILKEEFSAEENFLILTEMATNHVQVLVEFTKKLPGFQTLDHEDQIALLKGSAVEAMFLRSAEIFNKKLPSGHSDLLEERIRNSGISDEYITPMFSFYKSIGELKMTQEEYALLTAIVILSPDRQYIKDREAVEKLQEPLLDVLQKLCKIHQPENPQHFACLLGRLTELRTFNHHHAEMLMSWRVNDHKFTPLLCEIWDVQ
FXR:RXRa, sequence (P19793 whole entry, chain 2 of 2): as the sequence (P19793 whole entry, chain 2 of 2) above
Procedure, shortened: as §1

RARg:RXRa = RARg:RXRa (Homo sapiens, UniProt P13631;P19793 full;full); assay: as above; conditions: tags: His kept;His cleaved; copies: 1;1; label: surface-attached array probe
Procedure, shortened: as §1

Binder	binding signal (RARa:RXRa)	binding signal (THRa:RXRa)	binding signal (PXR:RXRa)	further results
B1	-0.13 PBM z-score against 500 random probes	-0.34 PBM z-score against 500 random probes	–	–
B2	–	-0.04 PBM z-score against 500 random probes	–	binding signal (PPARg:RXRa): -0.75 PBM z-score against 500 random probes; binding signal (VDR:RXRa): 0.49 PBM z-score against 500 random probes
B3	7.48 PBM z-score against 500 random probes	4.85 PBM z-score against 500 random probes	6.49 PBM z-score against 500 random probes	–
B4	–	-0.17 PBM z-score against 500 random probes	–	binding signal (PPARg:RXRa): -0.07 PBM z-score against 500 random probes; binding signal (LXRa:RXRa): -0.53 PBM z-score against 500 random probes
B5	3.37 PBM z-score against 500 random probes	4.78 PBM z-score against 500 random probes	–	–
B6	-0.57 PBM z-score against 500 random probes	-0.26 PBM z-score against 500 random probes	–	–
B7	-0.36 PBM z-score against 500 random probes	-0.43 PBM z-score against 500 random probes	–	binding signal (PPARa:RXRa): -0.57 PBM z-score against 500 random probes; binding signal (LXRb:RXRa): -0.18 PBM z-score against 500 random probes; binding signal (RXRa): -0.49 PBM z-score against 500 random probes
B8	–	-0.6 PBM z-score against 500 random probes	-0.8 PBM z-score against 500 random probes	binding signal (PPARg:RXRa): -0.45 PBM z-score against 500 random probes; binding signal (PPARa:RXRa): -0.4 PBM z-score against 500 random probes; binding signal (FXR:RXRa): -0.38 PBM z-score against 500 random probes
B9	–	-0.49 PBM z-score against 500 random probes	-0.88 PBM z-score against 500 random probes	binding signal (PPARg:RXRa): -0.31 PBM z-score against 500 random probes; binding signal (RXRa): -1.01 PBM z-score against 500 random probes
B10	–	-0.3 PBM z-score against 500 random probes	-0.22 PBM z-score against 500 random probes	binding signal (PPARg:RXRa): 0.13 PBM z-score against 500 random probes
B11	0.41 PBM z-score against 500 random probes	0.05 PBM z-score against 500 random probes	0.17 PBM z-score against 500 random probes	–
B12	7.16 PBM z-score against 500 random probes	4.78 PBM z-score against 500 random probes	–	–
B13	7.03 PBM z-score against 500 random probes	5.07 PBM z-score against 500 random probes	6.42 PBM z-score against 500 random probes	binding signal (RARg:RXRa): 8.33 PBM z-score against 500 random probes
B14	8.19 PBM z-score against 500 random probes	5.06 PBM z-score against 500 random probes	–	binding signal (VDR:RXRa): 8.47 PBM z-score against 500 random probes; binding signal (FXR:RXRa): 8 PBM z-score against 500 random probes; binding signal (LXRb:RXRa): 6.76 PBM z-score against 500 random probes
B15	-1.09 PBM z-score against 500 random probes	-0.77 PBM z-score against 500 random probes	–	binding signal (LXRb:RXRa): -1.14 PBM z-score against 500 random probes
B16	-0.25 PBM z-score against 500 random probes	0.16 PBM z-score against 500 random probes	–	binding signal (FXR:RXRa): 0.34 PBM z-score against 500 random probes; binding signal (LXRb:RXRa): 0.28 PBM z-score against 500 random probes
B17	-0.53 PBM z-score against 500 random probes	-0.07 PBM z-score against 500 random probes	–	binding signal (LXRb:RXRa): -0.28 PBM z-score against 500 random probes
B18	4.46 PBM z-score against 500 random probes	4.89 PBM z-score against 500 random probes	–	–

Source: paper PMC6555819, “Comprehensive study of nuclear receptor DNA binding provides a revised framework for understanding receptor specificity”
